Measured values reported in paper PMC12362244, “Fidelity, specialization, and evolution of Paramecium PolX DNA polymerases involved in programmed double-strand break DNA repair” (Nucleic Acids Research, 2025).

Key:
Assay in all cases: steady-state single-nucleotide gap-filling, FAM-primer urea-PAGE, Michaelis-Menten fit
Conditions in all cases: 1 µM gap-filling DNA (continuous template), 5 nM enzyme, 5 mM MgCl2, pH 7.5, 27°C
[1] = substrate: Nc1nc2c(ncn2[C@H]2C[C@H](O)[C@@H](COP(=O)(O)OP(=O)(O)OP(=O)(O)O)O2)c(=O)[nH]1; assay type: biochemical, Homo sapiens
Text: steady-state single-nucleotide gap-filling, FAM-primer urea-PAGE, Michaelis-Menten fit on Polλxt | all mutants underwent steady-state characterization in gap-filling context (Fig. 4B and C)

[2] = substrate: Nc1nc2c(ncn2[C@H]2C[C@H](O)[C@@H](COP(=O)(O)OP(=O)(O)OP(=O)(O)O)O2)c(=O)[nH]1; assay type: biochemical, Homo sapiens; remark: listed apart in the source
[3] = substrate: Nc1nc2c(ncn2[C@H]2C[C@H](O)[C@@H](COP(=O)(O)OP(=O)(O)OP(=O)(O)O)O2)c(=O)[nH]1; assay type: biochemical, Homo sapiens; remark: listed apart in the source
Text: steady-state single-nucleotide gap-filling, FAM-primer urea-PAGE, Michaelis-Menten fit on Polλxt | despite an almost normal KM in the […] range

[4] = substrate: Nc1nc2c(ncn2[C@H]2C[C@H](O)[C@@H](COP(=O)(O)OP(=O)(O)OP(=O)(O)O)O2)c(=O)[nH]1; assay type: biochemical, Paramecium

B1: Polλxt (Homo sapiens; C543A/DEL464-472/INS464KGET) (protein)
chain: AQPSSQKATNHNLHITEKLEVLAKAYSVQGDKWRALGYAKAINALKSFHKPVTSYQEACSIPGIGKRMAEKIIEILESGHLRKLDHISESVPVLELFSNIWGAGTKTAQMWYQQGFRSLEDIRSQASLTTQQAIGLKHYSDFLERMPREEATEIEQTVQKAAQAFNSGLLCVACGSYRRGKATCGDVDVLITHPDGRSHRGIFSRLLDSLRQEGFLTDDLVSKGETYLGVCRLPGPGRRHRRLDIIVVPYSEFACALLYFTGSAHFNRSMRALAKTKGMSLSEHALSTAVVRNTHGAKVGPGRVLPTPTEKDVFRLLGLPYREPAERDW
notes: Δ1-241; Loop1 residues 464-472 replaced by KGET of Polβ; cleavable N-terminal 14-His tag; E. coli
[1]
  Km: 1893 (949.4 - 4602.0) nM

B2: Polλxt (Homo sapiens; C543A/DEL464-472/I492K/INS464KGET) (protein)
chain: AQPSSQKATNHNLHITEKLEVLAKAYSVQGDKWRALGYAKAINALKSFHKPVTSYQEACSIPGIGKRMAEKIIEILESGHLRKLDHISESVPVLELFSNIWGAGTKTAQMWYQQGFRSLEDIRSQASLTTQQAIGLKHYSDFLERMPREEATEIEQTVQKAAQAFNSGLLCVACGSYRRGKATCGDVDVLITHPDGRSHRGIFSRLLDSLRQEGFLTDDLVSKGETYLGVCRLPGPGRRHRRLDIKVVPYSEFACALLYFTGSAHFNRSMRALAKTKGMSLSEHALSTAVVRNTHGAKVGPGRVLPTPTEKDVFRLLGLPYREPAERDW
notes: as for B1
[2]
  Km: 494.7 (237.7 - 937.3) nM

B3: Polλxt (Homo sapiens; C543A/DEL464-472/H530Y/I492R/INS464KGET/S528N) (protein)
chain: AQPSSQKATNHNLHITEKLEVLAKAYSVQGDKWRALGYAKAINALKSFHKPVTSYQEACSIPGIGKRMAEKIIEILESGHLRKLDHISESVPVLELFSNIWGAGTKTAQMWYQQGFRSLEDIRSQASLTTQQAIGLKHYSDFLERMPREEATEIEQTVQKAAQAFNSGLLCVACGSYRRGKATCGDVDVLITHPDGRSHRGIFSRLLDSLRQEGFLTDDLVSKGETYLGVCRLPGPGRRHRRLDIRVVPYSEFACALLYFTGSAHFNRSMRALAKTKGMSLNEYALSTAVVRNTHGAKVGPGRVLPTPTEKDVFRLLGLPYREPAERDW
notes: as for B1
[3]
  Km: 849.9 (587.8 - 1277.0) nM

B4: Polλxt (Homo sapiens; C543A/DEL464-472/E529D/I492K/INS464KGET) (protein)
chain: AQPSSQKATNHNLHITEKLEVLAKAYSVQGDKWRALGYAKAINALKSFHKPVTSYQEACSIPGIGKRMAEKIIEILESGHLRKLDHISESVPVLELFSNIWGAGTKTAQMWYQQGFRSLEDIRSQASLTTQQAIGLKHYSDFLERMPREEATEIEQTVQKAAQAFNSGLLCVACGSYRRGKATCGDVDVLITHPDGRSHRGIFSRLLDSLRQEGFLTDDLVSKGETYLGVCRLPGPGRRHRRLDIKVVPYSEFACALLYFTGSAHFNRSMRALAKTKGMSLSDHALSTAVVRNTHGAKVGPGRVLPTPTEKDVFRLLGLPYREPAERDW
notes: as for B1
[4]
  Km: 399.3 (247.1 - 607.0) nM
